Test results published in paper PMC314469, “Protein Interaction Networks by Proteome Peptide Scanning” (PLoS Biology, 2004).

T1: Myo5 SH3 (MYO5_YEAST), Q04439
T1 chain: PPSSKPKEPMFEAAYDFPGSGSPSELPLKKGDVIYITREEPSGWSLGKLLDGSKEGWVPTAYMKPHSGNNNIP


Target: T1, Myo5 SH3 (MYO5_YEAST), Q04439
Test: SPOT array

Binder	normalised SPOT signal, Boehringer light units (BLU); mean over the file's lines of this peptide
GLIGMNDPPRPNVK [YGL167C 574-587]	116
IERVWNGPVEPSDE [YIL067C 73-86]	180
IEEGHLDPEAPDKL [YOR301W 105-118]	84.8
HPYMMVYPMSPPPP [YHL024W 649-662]	563
IAGMLMVPESPRFL [YMR011W 241-254]	255
GLHDYTSPASPKQT [YOR267C 107-120]	130
HLVVWNPPILPQHE [YDR291W 495-508]	118
GLIAHQGPQFPVMG [YKL204W 458-471]	238
IFFKLIHPFLPILH [YIR023W 322-335]	503
IEITHSEPAIPYRE [YNL163C 742-755]	114
IEPDFIEPDAPLAA [YGL198W 10-23]	61.4
GPLLLTVPELPEAD [YLR338W 178-191]	162
IEFDLSKPFTPFQQ [YGL173C 578-591]	134
GPIIHPGPEPPRYD [YPR030W 1104-1117]	205
GWPVYNYPMQPTTE [YER109C 286-299]	168
IARPLSVPGSPKVR [YFR015C 646-659]	383
HEKLYHNPSLPAQS [YKL217W 53-66]	78.1
IAKPYVLPFFPLYA [YEL031W 24-37]	247
HAWDMRSPHRPFYS [YDR128W 140-153]	822
HEHNYAIPYTPATF [YBR238C 43-56]	129

Binder	normalised SPOT signal, Boehringer light units (BLU); mean over the file's lines of this peptide
HPHPHPHPHTPTHT [YHR217C 23-36]	238
HLARYIFPPNPVFH [YBR007C 426-439]	279
IATMYPIPAYPDLL [YJL127C 53-66]	96.9
GLRELFLPGMPGLM [YPL249C 557-570]	160
HFNDLQSPAQPQQS [YMR164C 264-277]	92.5
ILHQLGAPSIPENL [YBL004W 2280-2293]	174
GLDALNIPHKPKQL [YHR033W 57-70]	167
GPEFWISPDTPLKF [YJL093C 632-645]	87.4
GFVFFIAPHLPVDL [YER003C 399-412]	508
GPSQFAPPPPPPGV [YCR077C 189-202]	20400
IARSFTIPFLPKIP [YLR164W 20-33]	204
GLRWYRSPIYPYLY [YEL050C 102-115]	468
GEYDLIMPIYPYRL [YIL173W 521-534]	242
GETRWRIPYLPLDP [YOR108W 386-399]	118
HPIHLQPPVPPVYK [YOR032C 88-101]	318
HFLAYTNPRAPGKL [YIL054W 29-42]	112
GLLLLFVPDSPYDP [YLR106C 2903-2916]	21.6
HAVLLNPPVAPTAE [YPL012W 184-197]	228
HPEYLSLPFEPYSF [YLR054C 108-121]	213
ILSAYNSPKVPADI [YGR175C 270-283]	81.4

Binder	normalised SPOT signal, Boehringer light units (BLU); mean over the file's lines of this peptide
HAEAFEDPSIPRIS [YGL195W 985-998]	325
IAESLGVPWEPVDL [YGR088W 547-560]	143
HLDSFSPPFSPSTT [YPL230W 298-311]	121
HEYNLALPKFPILF [YMR088C 27-40]	147
HATLYWAPVSPLKS [YLR305C 1420-1433]	151
IEVPMEYPFKPPKM [YDR177W 56-69]	384
HFYEYVYPSLPFIE [YAL051W 349-362]	152
GLLTYKGPKVPYQK [YHR028C 497-510]	150
HLTDLSPPGTPPTM [YMR165C 272-285]	261
HPSGLNSPKLPPLP [YNL152W 370-383]	457
IFQSLLHPELPIII [YPR169W 50-63]	240
GWSTYIPPFNPLEI [YNL088W 836-849]	114
GWVVYPPPPKPSYN [YML035C 223-236]	453
HLFHLTTPQDPRLL [YKL191W 249-262]	246
GFDGYMQPIIPGKT [YDR390C 147-160]	158
GWEPFSLPKDPKVV [YML018C 282-295]	75.9
HFLSLDPPIDPNNL [YMR075W 283-296]	122
GETQWRIPYLPLDP [YNL104C 387-400]	106
